Several values for one entry are separate records, joined by “and”; a condition that tells them apart may be missing. Equal values may be shown once.
Experiments:
LRP6.E1-E2-Fc = LRP6.E1-E2-Fc (human); experiment: ELISA
LRP6.E3-E4-Fc = molecular target: T1, LRP6.E3-E4-Fc (human); experiment: ELISA
T1 construct: also called LRP6.E3-4-Fc

LRP6 on HEK293 cells = LRP6 on HEK293 cells (human, UniProt O75581 20-1613); experiment: cell-based or functional assay
[1] = molecular target: T2, LRP6 (human; form used in the assay not stated) (human, UniProt O75581 20-1253, limits assumed); experiment: Scatchard analysis; format not stated; Scatchard analysis
T2 construct: probably an E3-E4 fragment for SPR
T2 sequence: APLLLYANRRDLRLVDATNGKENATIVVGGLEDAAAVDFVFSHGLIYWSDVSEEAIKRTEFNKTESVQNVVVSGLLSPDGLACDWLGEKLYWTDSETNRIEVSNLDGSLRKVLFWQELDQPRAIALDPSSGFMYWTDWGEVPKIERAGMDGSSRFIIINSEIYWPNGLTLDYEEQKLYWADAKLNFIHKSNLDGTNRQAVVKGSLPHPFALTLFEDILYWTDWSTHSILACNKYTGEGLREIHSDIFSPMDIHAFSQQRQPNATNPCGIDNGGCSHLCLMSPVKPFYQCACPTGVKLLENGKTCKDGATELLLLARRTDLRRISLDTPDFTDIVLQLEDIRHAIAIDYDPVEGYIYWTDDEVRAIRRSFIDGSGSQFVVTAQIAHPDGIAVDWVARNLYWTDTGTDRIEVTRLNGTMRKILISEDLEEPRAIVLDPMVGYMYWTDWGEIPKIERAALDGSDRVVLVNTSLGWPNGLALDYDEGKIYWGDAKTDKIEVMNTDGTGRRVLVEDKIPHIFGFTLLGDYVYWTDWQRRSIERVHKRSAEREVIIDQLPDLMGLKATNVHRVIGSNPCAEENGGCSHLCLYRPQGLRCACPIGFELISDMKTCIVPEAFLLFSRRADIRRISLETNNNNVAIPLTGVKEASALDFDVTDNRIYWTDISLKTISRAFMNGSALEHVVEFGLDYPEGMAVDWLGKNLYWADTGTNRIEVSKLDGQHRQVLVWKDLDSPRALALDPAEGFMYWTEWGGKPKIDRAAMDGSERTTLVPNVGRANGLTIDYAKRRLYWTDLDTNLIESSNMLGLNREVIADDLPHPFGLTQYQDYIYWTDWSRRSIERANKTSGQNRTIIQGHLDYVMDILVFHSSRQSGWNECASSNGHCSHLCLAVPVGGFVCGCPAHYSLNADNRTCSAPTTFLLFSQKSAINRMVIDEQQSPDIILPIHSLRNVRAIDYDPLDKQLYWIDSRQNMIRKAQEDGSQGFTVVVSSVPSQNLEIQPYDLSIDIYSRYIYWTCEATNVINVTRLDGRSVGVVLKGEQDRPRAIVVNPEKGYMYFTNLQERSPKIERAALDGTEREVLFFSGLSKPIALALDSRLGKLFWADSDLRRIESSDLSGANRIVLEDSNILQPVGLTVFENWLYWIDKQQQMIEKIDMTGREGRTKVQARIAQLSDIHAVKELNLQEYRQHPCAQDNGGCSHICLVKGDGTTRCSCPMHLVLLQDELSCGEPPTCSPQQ

[2] = molecular target: T2, LRP6 (human; form used in the assay not …); experiment: SPR; LRP6 construct not stated; SPR
[3] = molecular target: T3, LRP6.E1-E2 fragment (biotinylated, His-tagged) (Homo sapiens (Human), UniProt O75581 19-644, biotinylated (AviTag system)); experiment: biolayer interferometry, immobilized LRP6 E1-E2 fragment; Wnt9b at 200 nM; association then dissociation phase
T3 construct: BLI antigen from baculovirus-infected insect cells; also called LRP6 E1-E2 protein fragment; not shown: His tag and AviTag
T3 sequence: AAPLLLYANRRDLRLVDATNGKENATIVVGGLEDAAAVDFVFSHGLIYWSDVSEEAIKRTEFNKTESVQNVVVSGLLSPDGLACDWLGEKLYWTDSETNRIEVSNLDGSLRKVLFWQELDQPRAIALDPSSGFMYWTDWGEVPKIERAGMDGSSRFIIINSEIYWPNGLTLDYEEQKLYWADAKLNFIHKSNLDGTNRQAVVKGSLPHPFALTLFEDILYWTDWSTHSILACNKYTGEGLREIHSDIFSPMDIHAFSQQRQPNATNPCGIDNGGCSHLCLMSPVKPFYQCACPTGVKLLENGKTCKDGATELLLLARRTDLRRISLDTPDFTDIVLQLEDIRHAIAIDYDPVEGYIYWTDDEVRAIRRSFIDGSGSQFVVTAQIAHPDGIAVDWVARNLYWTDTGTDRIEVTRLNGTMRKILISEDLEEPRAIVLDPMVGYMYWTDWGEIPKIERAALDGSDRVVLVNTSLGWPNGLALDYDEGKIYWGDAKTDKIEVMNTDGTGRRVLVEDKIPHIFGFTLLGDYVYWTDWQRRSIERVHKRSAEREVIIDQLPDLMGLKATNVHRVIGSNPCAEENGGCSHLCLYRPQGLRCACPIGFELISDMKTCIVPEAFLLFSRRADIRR
Description: Biolayer interferometry was performed as previously described (Bourhis et al., 2010). Briefly, biotinylated, His-tagged LRP6 proteins were purified from baculovirus-infected insect cells using the AviTag system (GeneCopoeia). Binding kinetics were measured on the Octet RED System (ForteBio) using Streptavidin High Binding FA Biosensors loaded with 20 μg/ml LRP6 protein.
In these assays, antibody binding to LRP6 protein was allowed to reach equilibrium, and the subsequent wavelength shift in the interference pattern is shown for association and dissociation phases of Wnt protein binding.

Chain of LRP6.E1-E2-Fc (human) (chain, as listed by the source limits assumed): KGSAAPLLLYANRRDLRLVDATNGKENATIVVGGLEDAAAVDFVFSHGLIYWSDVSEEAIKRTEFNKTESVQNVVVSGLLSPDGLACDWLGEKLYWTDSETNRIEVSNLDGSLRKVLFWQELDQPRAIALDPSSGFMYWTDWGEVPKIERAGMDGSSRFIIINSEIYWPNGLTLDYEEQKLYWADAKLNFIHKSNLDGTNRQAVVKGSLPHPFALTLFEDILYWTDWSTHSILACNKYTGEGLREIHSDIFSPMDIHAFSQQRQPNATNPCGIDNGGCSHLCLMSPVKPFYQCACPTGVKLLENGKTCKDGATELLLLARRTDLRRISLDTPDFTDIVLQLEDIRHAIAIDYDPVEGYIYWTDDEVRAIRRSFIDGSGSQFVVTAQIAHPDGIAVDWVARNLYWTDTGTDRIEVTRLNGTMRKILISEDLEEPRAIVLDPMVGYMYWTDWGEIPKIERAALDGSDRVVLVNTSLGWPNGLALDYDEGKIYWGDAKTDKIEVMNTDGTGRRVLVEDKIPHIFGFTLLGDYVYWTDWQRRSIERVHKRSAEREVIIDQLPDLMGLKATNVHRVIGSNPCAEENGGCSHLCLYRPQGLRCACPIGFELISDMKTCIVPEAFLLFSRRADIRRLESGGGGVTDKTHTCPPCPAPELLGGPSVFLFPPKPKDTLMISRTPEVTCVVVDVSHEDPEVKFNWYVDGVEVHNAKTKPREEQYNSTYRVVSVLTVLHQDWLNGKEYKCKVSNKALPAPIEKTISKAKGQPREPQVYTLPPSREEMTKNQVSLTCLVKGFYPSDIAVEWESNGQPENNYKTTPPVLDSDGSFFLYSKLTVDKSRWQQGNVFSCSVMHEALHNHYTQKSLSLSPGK
T1 sequence (chain, as listed by the source limits assumed): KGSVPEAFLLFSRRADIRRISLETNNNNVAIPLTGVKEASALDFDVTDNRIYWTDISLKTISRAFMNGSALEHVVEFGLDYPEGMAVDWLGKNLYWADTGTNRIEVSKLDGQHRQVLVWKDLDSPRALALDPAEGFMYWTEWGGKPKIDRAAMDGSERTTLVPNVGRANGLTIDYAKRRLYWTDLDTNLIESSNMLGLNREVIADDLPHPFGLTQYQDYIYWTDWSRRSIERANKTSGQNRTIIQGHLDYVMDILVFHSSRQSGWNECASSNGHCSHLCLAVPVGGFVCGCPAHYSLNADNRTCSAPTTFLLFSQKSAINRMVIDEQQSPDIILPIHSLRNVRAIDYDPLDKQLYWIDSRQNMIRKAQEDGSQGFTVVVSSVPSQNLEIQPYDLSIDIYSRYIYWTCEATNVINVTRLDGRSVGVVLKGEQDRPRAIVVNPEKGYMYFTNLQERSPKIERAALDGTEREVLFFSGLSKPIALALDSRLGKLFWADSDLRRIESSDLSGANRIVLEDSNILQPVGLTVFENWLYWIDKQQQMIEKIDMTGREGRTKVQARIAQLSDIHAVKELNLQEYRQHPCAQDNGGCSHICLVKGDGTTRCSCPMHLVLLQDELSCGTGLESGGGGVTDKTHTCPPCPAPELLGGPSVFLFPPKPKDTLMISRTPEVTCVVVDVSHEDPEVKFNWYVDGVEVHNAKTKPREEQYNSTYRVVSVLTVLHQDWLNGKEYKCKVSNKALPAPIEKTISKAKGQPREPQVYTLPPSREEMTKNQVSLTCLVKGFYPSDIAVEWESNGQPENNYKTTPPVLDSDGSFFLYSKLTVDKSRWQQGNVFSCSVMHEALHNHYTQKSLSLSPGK

B1: YW211.31 antibody (antibody, human IgG1, kappa, V domains shown)
VH: EVQLVESGGGLVQPGGSLRLSCAASGFTFTSYYISWVRQAPGKGLEWVAEISPYSGSTYYADSVKGRFTISADTSKNTAYLQMNSLRAEDTAVYYCALRARPPIRLHPRGSVMDYWGQGTLVTVSS
VL: DIQMTQSPSSLSASVGDRVTITCRASQDVSTAVAWYQQKPGKAPKLLIYSASFLYSGVPSRFSGSGSGTDFTLTISSLQPEDFATYYCQQSYTTPPTFGQGTKVEIKR
notes: also called intact YW211.31 antibody
With B1 the binding result (LRP6.E1-E2-Fc) was “no binding”, the binding result (LRP6.E3-E4-Fc) was “binds” and the “IC50, inhibition of signaling (Wnt luciferase reporter) in Wnt3a-stimulated HEK293 cells” value (LRP6 on HEK293 cells) was ~1 ug/ml and ~6 nM. It also gave a Kd [1] of ~0.6 nM and a Kd [2] of ~2 nM.

B2: Wnt9b (ligand, mouse, UniProt O35468 24-359, looked up)
chain: AAYFGLTGREVLTPFPGLGTAAAPAQAGAHLKQCDLLKLSRRQKQLCRREPGLAETLRDAAHLGLLECQFQFRQERWNCSLEGRTGLLQRGFKETAFLYAVSAAALTHALARACSAGRMERCTCDDSPGLESRQAWQWGVCGDNLKYSTKFLSNFLGPKRGSKDLRARADAHNTHVGIKAVKSGLRTTCKCHGVSGSCAVRTCWKQLSPFRETGQVLKLRYDTAVKVSSATNEALGRLELWAPAKPGGPAKGLAPRPGDLVYMEDSPSFCRPSKYSPGTAGRVCSRDSSCSSLCCGRGYDTQSRMVVFSCHCQVQWCCYVECQQCAQQELVYTCKR
notes: also called purified mouse Wnt9b
B2: binds [3].

Source: patent US20110256127A1 (Genentech, published 2011)
